Reference: US20140186352A1 (DEVELOPMENT CENTER FOR BIOTECHNOLOGY, published 2014)

T1: denatured granulysin (10His tag, expressed in 293T cells, run on denaturing SDS-PAGE) (UniProt P22749 23-145, limits assumed)
T1 construct: Same protein as native granulysin but denatured; probed on a blot with the test antibodies and anti-human-HRP; not shown: 10His tag
T1 sequence (looked up): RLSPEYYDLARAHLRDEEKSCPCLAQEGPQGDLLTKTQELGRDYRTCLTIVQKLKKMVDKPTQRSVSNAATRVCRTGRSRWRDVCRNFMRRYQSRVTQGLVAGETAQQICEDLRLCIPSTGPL

T2: granulysin mutant RRRR97/100/104/108AAAA (Homo sapiens (Human), UniProt P22749 23-145, limits assumed)
T2 construct: Expressed in 293T cells, culture supernatant used; not shown: His tag
T2 chain: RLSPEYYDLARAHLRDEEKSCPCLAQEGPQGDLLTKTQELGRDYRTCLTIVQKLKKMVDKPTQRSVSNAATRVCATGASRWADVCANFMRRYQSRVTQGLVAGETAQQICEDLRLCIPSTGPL

T3: granulysin mutant RRRRR94/97/100/102/104AAAAA (Homo sapiens (Human), UniProt P22749 23-145, limits assumed)
T3 construct: not shown: His tag
T3 chain: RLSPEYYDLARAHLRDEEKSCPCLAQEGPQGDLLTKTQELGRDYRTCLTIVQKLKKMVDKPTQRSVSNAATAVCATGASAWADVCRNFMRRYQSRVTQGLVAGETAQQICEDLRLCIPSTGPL


target: T1, denatured granulysin (10His tag, …); assay: blot of denaturing SDS-PAGE probed with the antibody, anti-human-HRP
Source text: The expressed granulysin may be run on a denatured SDS-PAGE and then probed with the test antibodies. Whether the test antibodies bind to the denatured granulysin can be detected using a secondary antibody (containing a reporter group; e.g., anti-human-HRP).

Binder	binding result
GP42-09 (antibody, V domains shown, Phage display clone) VH: QVKLQQSGAELVRPGALVKLSCKASGFNIKDYYMHWVKQRPEQGLEWIGWIDPENGNTIYDPKFQGKASITADTSSNTAYLQLSSLTSEDSAVYFCARVGDDYDGDFDYWGQGTTVTVSS VL: DIELTQSPASLAVSLGQRATISCRASESVDSYGDSFMHWYQQKPGQPPKLLIYRASNLESGIPARFSGSGSRTDFTLTINPVEADDVATYYCQQSYEDPYTFGGGTKLEIKR	no binding
16.7Chi (antibody, V domains shown, also called chimeric antibody of the variable region of M16.7 fused with the constant region of human IgG1) VH: EVLLQQSGPELVKPGASVKISCKASGYTFTDYNMDWVKQSHGKSLEWIGDINPNVGDTIYNQKFKGKATLTVDKSSSTAYMELRSLTSEDSAVYYCVRSDDDYSWFAHWGQGTLVTVSA VL: SIVMTQTPKFLLVSAGDRVTITCKASQSVSNDVAWYQQKSGQSPKLLIYYASNRYTGVPDRFTGSGYGTDFTFTISTVQAELAVYFCQQDSSSPLTFGAGTKLELKR	no binding
106.17Chi (antibody, V domains shown, also called chimeric antibody of the variable region of M106.17 fused with the constant region of human IgG1) VH: EVLLQQSGPELVKPGASVKIPCKASGYTFTDYNMDWVKQSHGKSLEWIGDINPNNGDTIYNQNFKDKATLTVNKSSSTAYMELRSLTSEDTAVYYCVRSDDNYSWFTYWGQGTLVTVSA VL: SIVMTQTPKFLLVSAGDRVTITCKASQSVSNDVAWYQQKSGQSPKLLIYYASNRYTGVPDRFTGSGYGTDFTFTISTVQAELAVYFCQQDSSSPLTFGAGTKLELKR	no binding
GP42-27 (antibody, V domains shown, Phage display clone) VH: QVKLQESGAELVRPGTSVKISCKASGYTFTNYDINWVKQRPGQGLEWIGWIDPGDGRTKYNENFKDKASLTADKSSSTAYMQLSSLTSEDSAVYYCARVGDDYDGGFDYWGQGTTVTVSS VL: DIELTQSPASLAVSLGQRATISCRASESVDSYGNSFMHWYQQKPGQPPRLLIYAASNQESGIPARFSGSGSRTDFTLTINPVEADDVATYYCQQSYEDPYTFGGGTKLELKR	no binding
34.22Chi (antibody, V domains shown, also called chimeric antibody of the variable region of M34.22 fused with the constant region of human IgG1) VH: QVQLQQSGAELVRPGVSVKISCKGSGYTFTDYSIHWVKQSHAKSLEWIGVISSYYGDARHNQKFKGKATMTVDKSSSTAYMELARLTSEDSAIYYCARDGYYGYAMDYWGQGTSVTVSS VL: DVVMTQTPLSLPVSLGDQASISCRSTQSLVHSNGNTYLHWYLQKPGQSPKLLIYKVSYRFSGVPDRFSGSGSGTDFTLKISRVEAEDLGVYFCSQSTHVPFTFGSGTKLEIKR	no binding
GP42-10 (antibody, V domains shown, Phage display clone) VH: QVKLQQSGPDLVKPGSLVKISCKASGYTFSNYDINWVKQRPGQGLEWIGWIDPGNGRTKYNEKFEDKATLTADKSSSTAYMQLSSLTSEDSAVYFCARVGDDYDGDFDYWGQGTTVTVSS VL: DIELTQSPTIMSASPGEKVTMTCRASESVDSYGNSFMHWYQQKPGLPPKLLIYRASNLESGIPARFSGSGSRTDFTLTINPVEADDVATYYCQQSNEYPYTFGGGTKLEIKR	no binding
GP31-52 (antibody, V domains shown, Phage display clone) VH: QVQLQQSGPDLVKPGALVKISCKASGYSFTNYDINWVKQRPGQGLEWIGWIDPGNGRTKYNEKFTGKASLTADKSSSTAYMVLSSLTSENSAVYFCARVGDDYDGGFDYWGQGTTVTVSS VL: DIELTQSPSIMAASLGQKVTMTCSASSSVSSSYLHWYQQKSGASPKPLIHRTSNLASGVPARFSGSGSGNSYSLTISSMEAEDVATYYCFQGSGYPYTFGGGTKLEIKR	no binding
GP42-58 (antibody, V domains shown, Phage display clone) VH: QVKLQQSGPDLVKPGALVKISCKASGYTFTSYDINWVKQRPGQGLEWIGWIDPGDGRTKYNEKFEGKASLTADKSSSTAYMLLSSLTSDNSAVYFCARVGDDYDGGFDYWGQGTTVTVSS VL: DIELTQSPAIMSASPGEKVTISCSASESVDSYGNSFMNWYQQKPGQPPKLLIYRASNLESGIPVRFSGGGSRTDFTLTINPVEADDVATYYCQQSNEYPYTFGGGTKLEIKR	no binding

Target: T2, granulysin mutant RRRR97/100/104/108AAAA
Assay: ELISA, antibody coated, His-tagged mutant granulysin detected with anti-His-HRP
Procedure: (§1) To the antibody-coated plates, 200 μl of serially diluted samples (wild-type or mutant granulysin) were added to each well. The solutions were then incubated at 37° C. for 2 hours.
(§2) After washing to remove the unbound proteins, the bound proteins that were produced with His-tag (or any other tag or a fusion protein), can be detected with an anti-H is antibody coupled with HRP (for example, Sigma, A7058) at an appropriate dilution (e.g., 1:2000). The secondary antibodies were allowed to bind to the bound proteins by incubation at 37° C. for 2 hours (or any suitable duration and temperatures).

Binder	binding result
BGF33-19 (antibody, V domains shown, Phage display clone) VH: QVQLQQSGAELVRPGTSVKVSCKASGYAFTNYLIEWVKQRPGQGLEWIGVINPGSGGTNYNEKFKGKATLTADKSSSTAYMQLSSLTSDDSAVYFCAREGEKHSYYFDYWGQGTTLTVSS VL: DIVLTQSPASLAVSLGQRATISCRASESVDSYGDSFMHWYQQKPGQPPKLLIYLASNLESGVPARFSGSGSRTDFTLTIDPVEADDAATYYCQQNNEDPPTFGGGTKLEIKR	no binding
BGF2A2-92 (antibody, V domains shown, Phage display clone) VH: EVQLVESGGGLVQPGGSLKLSCAASGFTFSDYYMYWVRQTPEKRLEWVATISDGGDYTYYPDSVKGRFTISRDNAKNNLYLQMSSLKSEDTAMYYCAREGDYYGPFAYWGQGTTLTVSS VL: DIVMTQSQKFMSTSVGDRVSITCKASQNVGTAVAWYQQKPGQSPKALIYSASYRYSGVPDRFTGSGSGTDFTLTISNVQSEDLAEYFCQQYNSYPYTFGGGTKLEIKR	no binding

Target: T3, granulysin mutant …
Assay: as above
Procedure: as §1, §2

Binder	binding result
BGF33-19 (antibody, V domains shown, Phage display clone) VH: QVQLQQSGAELVRPGTSVKVSCKASGYAFTNYLIEWVKQRPGQGLEWIGVINPGSGGTNYNEKFKGKATLTADKSSSTAYMQLSSLTSDDSAVYFCAREGEKHSYYFDYWGQGTTLTVSS VL: DIVLTQSPASLAVSLGQRATISCRASESVDSYGDSFMHWYQQKPGQPPKLLIYLASNLESGVPARFSGSGSRTDFTLTIDPVEADDAATYYCQQNNEDPPTFGGGTKLEIKR	no binding
